B1: PD1(A99L):CD28 polypeptide (receptor)
chain: LDSPDRPWNPPTFSPALLVVTEGDNATFTCSFSNTSESFVLNWYRMSPSNQTDKLAAFPEDRSQPGQDCRFRVTQLPNGRDFHMSVVRARRNDSGTYLCGAISLAPKLQIKESLRAELRVTERRAEVPTAHCPSPLFPGPSKPFWVLVVVGGVLACYSLLVTVAFIIFWVRSKRSRLLHSDYMNMTPRRPGPTRKHYQPYAPPRDFAAYRS
notes: Position 99 is not counted from the initiating Met of the encoded open reading frame, where the changed alanine appears to lie near position 132

What was measured:
soluble PD-L1 [1] = biological target: soluble PD-L1 (UniProt Q9NZQ7); assay: cell binding (H9 cells); printed as pg/ul
soluble PD-L1 (UniProt Q9NZQ7), sequence (Q9NZQ7 19-238): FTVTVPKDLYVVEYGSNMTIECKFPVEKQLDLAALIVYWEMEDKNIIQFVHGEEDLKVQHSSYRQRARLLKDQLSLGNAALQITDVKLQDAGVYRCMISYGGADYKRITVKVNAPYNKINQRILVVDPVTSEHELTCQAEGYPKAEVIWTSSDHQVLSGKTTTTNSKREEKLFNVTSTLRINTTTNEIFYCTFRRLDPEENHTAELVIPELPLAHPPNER

soluble PD-L1 [2] = biological target: T1, soluble PD-L1 (UniProt Q9NZQ7 19-238, limits assumed); assay: competitive binding assay: mixed H9 cells expressing PD1(WT):CD28 (cell trace violet positive) and PD1(A99L):CD28 (negative), incubated with soluble PD-L1 (0.02 pg/uL to 20 ng/ul) for 30 min, streptavidin-APC, flow cytometry
T1 construct: also called PD1-L1
T1 sequence (Q9NZQ7 19-238 limits assumed): as the sequence (Q9NZQ7 19-238) above
Procedure: A competitive binding assay was performed to determine relative binding affinity between PD1 chimeric polypeptides, in particular PD1(WT):CD28 polypeptide, and the PD1(A99L):CD28 polypeptide.
A population of H9 cells containing PD1(WT):CD28 polypeptide were labeled with cell trace violet were mixed with a population of H9 cells containing PD1(A99L):CD28 polypeptide. The cells were then incubated with soluble PD-L1 (0.02 pg/uL to 20 ng/ul) for 30 min and then stained with streptavidin-APC. The two populations were separated out by flow analysis into cell trace violet positive (H9 cells containing PD1(WT):CD28 polypeptide) and cell trace violet negative (H9 cells containing PD1(A99L):CD28 polypeptide) populations. The populations were analyzed for APC positivity.

| Molecule | Kd (soluble PD-L1 [1]) [µg/mL] | fold binding affinity relative to PD1(WT):CD28 polypeptide (soluble PD-L1 [2]) [fold] |
| --- | --- | --- |
| PD1(A99L):CD28 polypeptide | 0.0033 |  |
| PD1(WT):CD28 polypeptide | 0.029 |  |
| B1 |  | ~9 |
